Measured values reported in patent US20250059288A1 (GRANITE BIO, published 2025).

How the values were obtained:
[1] = target: T1, Human CCR2b with the ECL2 domain of CCR2b of rhesus monkey (ECL2-hCCR2b) (human, with rhesus monkey ECL2 domain, UniProt O18793 1-360 (rhesus entry)); experiment: flow cytometry on stably transfected CHO cells
T1 construct: On stably transfected CHO cells
T1 chain: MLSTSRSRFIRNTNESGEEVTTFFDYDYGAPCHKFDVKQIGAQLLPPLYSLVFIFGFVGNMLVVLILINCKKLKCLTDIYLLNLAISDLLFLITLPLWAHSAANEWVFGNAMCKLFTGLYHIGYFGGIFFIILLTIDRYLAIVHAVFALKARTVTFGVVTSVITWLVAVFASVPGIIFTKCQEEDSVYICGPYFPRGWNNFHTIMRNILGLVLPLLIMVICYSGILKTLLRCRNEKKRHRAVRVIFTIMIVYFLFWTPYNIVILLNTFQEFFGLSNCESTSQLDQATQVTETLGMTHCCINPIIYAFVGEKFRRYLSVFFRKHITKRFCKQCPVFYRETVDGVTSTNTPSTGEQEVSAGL
Description: (§1) To further investigate the specificity of the antibodies of the present invention, binding of Y4T3 to various CCR2 constructs was tested. […] Untransfected CHO cells (empty) were also analyzed. Antibodies were tested at concentration of 10 μg/ml and incubated with the cells for 30 min on ice. After 3 washing steps with cold PBS, the bound antibodies were detected with a PE-labeled polyclonal rabbit anti-mouse immunoglobulins antibody (R0439 from Agilent Dako, diluted 1:200 in PBS) for 30 min on ice. After two washing steps with PBS, cells were analyzed by flow cytometry. Mean fluorescence intensity for PE was determined on cells and is depicted.

[2] = target: T2, Rhesus CCR2b (rh-CCR2B) (rhesus monkey (Macaca mulatta), UniProt O18793 1-360); experiment: flow cytometry on stably transfected CHO cells
T2 construct: On stably transfected CHO cells
T2 sequence: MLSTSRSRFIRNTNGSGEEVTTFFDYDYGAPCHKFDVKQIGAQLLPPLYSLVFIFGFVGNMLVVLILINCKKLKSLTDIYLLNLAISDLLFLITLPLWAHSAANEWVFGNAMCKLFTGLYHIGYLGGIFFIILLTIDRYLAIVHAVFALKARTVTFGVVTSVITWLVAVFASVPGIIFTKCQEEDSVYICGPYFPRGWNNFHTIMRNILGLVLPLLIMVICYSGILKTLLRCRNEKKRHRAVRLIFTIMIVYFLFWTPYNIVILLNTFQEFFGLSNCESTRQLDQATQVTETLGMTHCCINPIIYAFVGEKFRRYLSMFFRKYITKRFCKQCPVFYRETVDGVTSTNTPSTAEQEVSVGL
Description: as §1

[3] = target: T3, Human CCR2b with the N-terminus of CCR2b of rhesus monkey (human, with rhesus monkey N-terminus, UniProt O18793 1-360 (rhesus entry)); experiment: flow cytometry on stably transfected CHO cells, 10 µg/ml
T3 construct: On stably transfected CHO cells
T3 chain: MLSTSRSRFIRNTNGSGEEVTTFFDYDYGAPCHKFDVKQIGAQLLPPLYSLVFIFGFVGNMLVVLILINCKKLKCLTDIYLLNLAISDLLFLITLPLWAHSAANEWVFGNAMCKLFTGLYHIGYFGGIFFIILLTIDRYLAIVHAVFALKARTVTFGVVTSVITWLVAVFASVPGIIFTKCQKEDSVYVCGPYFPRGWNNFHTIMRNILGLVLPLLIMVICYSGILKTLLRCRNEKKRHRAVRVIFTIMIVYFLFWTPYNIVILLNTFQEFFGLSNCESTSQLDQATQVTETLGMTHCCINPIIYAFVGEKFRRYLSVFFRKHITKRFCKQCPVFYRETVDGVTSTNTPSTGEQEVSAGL
Description: as §1

[4] = target: T4, Human CCR2b with ECL3 domain of CCR2b of rhesus monkey (human, with rhesus monkey ECL3 domain, UniProt O18793 1-360 (rhesus entry)); experiment: as above
T4 construct: On stably transfected CHO cells
T4 chain: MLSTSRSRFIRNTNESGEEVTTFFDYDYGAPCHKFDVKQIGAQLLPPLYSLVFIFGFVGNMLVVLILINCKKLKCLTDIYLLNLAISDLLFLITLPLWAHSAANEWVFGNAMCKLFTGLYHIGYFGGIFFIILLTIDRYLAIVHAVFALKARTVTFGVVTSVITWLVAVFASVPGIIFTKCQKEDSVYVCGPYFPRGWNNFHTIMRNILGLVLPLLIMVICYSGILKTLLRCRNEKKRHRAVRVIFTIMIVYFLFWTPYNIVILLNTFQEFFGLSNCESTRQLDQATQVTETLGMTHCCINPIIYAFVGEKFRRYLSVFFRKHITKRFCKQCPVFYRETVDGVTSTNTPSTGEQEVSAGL
Description: as §1

[5] = target: T5, Marmoset CCR2b (Marmo-CCR2b) (marmoset monkey (Callithrix jacchus)); experiment: summary table; affinity to CCR2 expressed on marmoset PBMCs
T5 construct: On transfected CHO cells and, as native CCR2, on marmoset monocytes (splenocytes, PBMCs)
T5 chain: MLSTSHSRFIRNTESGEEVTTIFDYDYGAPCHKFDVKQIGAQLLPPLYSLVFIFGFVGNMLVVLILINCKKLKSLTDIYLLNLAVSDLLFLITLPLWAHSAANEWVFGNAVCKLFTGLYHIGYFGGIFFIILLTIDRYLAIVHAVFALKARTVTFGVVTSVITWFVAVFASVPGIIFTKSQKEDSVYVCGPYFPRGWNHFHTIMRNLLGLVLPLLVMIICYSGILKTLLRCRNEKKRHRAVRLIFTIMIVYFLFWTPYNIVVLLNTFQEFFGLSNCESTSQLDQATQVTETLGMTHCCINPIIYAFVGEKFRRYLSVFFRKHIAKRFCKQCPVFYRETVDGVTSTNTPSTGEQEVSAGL

[6] = target: T6, Human CCR2b (hCCR2b) (human, UniProt P41597-2 1-360); experiment: flow cytometry on human whole blood, classical monocytes, median fluorescence intensity
T6 construct: also called CD192; MCP-1 receptor
T6 sequence: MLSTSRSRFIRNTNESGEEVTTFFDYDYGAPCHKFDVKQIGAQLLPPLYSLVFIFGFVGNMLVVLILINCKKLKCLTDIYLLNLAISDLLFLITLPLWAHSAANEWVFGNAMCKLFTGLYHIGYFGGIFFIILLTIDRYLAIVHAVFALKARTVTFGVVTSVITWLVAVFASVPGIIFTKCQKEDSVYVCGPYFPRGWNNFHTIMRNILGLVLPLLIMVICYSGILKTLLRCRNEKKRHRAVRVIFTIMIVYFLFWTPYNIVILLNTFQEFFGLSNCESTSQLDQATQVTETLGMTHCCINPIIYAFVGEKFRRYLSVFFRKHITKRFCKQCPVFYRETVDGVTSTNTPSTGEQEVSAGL
Description: Human heparinized whole blood was incubated with the indicated antibodies for 45 min on ice, washed three times with cold PBS, then stained with secondary PE-labeled rabbit-anti-mouse Ig (R0439, DakoCytomation 1:200) for 30 min on ice, washed 3 times with cold PBS. The 10% mouse serum was added for 10 min and after that directly labeled antibodies against CD3-APCCy7, CD8-PE-Cy7, CD4-V500, CD123-PerCP, CD304-APC, CD116-FITC, CD16-PB. After washing and lysis of red blood cells with BD Lysing solution cells were acquired on a FACSCanto-II and analyzed by FACS-DIVA software. Classical monocytes were identified by light scatter properties, expression of CD116 and absence of CD16 and CD123. Median fluorescence intensity for PE is depicted on classical monocytes.

[7] = target: T7, Human CCR5 (human, UniProt P51681 1-352); experiment: summary table; binding to human CCR5
T7 construct: On transfected CHO cells; also called CD195

[8] = target: T6, Human CCR2b (hCCR2b); experiment: flow cytometry on human whole blood, 0.5 µg/ml
Text: Y4T3 was humanized by CDR-grafting resulting in hY4T3. Databases of Human IgG sequences and human germline sequences were searched for comparison to the murine VH domain and VL domain using BLAST search algorithms, and candidate human variable domains selected from the top 200 BLAST results. These were reduced to five candidates for VH (HC1-HC5 or H1-H5) and five candidates for VL (LC1-LC5 or L1-L5) based on a combination of framework homology, maintaining key framework residues and canonical loop structure. In total 25 humanized variants of Y4T3 were generated. The humanized Y4T3 variants were tested for binding to human CCR2+ monocytes in whole human blood by flow cytometry. 60 μl of lithium-heparin anticoagulated human whole blood was incubated for 45 min on ice with the indicated antibodies at 0.5 μg/ml in PBS. After three washing steps with cold PBS the bound antibodies were detected with PE-F(ab)2 goat anti human IgG (Jackson ImmunoResearch, 109-116-098) together with directly labeled antibodies against CD8, CD4, CD123 and CD116. After 2 washing steps with 0.9% NaCl red blood cells were lysed with Lysing Solution (BDBioscience) for 10 min in the dark. Cells were washed once with PBS and analyzed by flow cytometry to identify CCR2 expression on various cell types including monocytes. Mean fluorescence intensity (MFI) for PE was determined for these cell populations and is depicted.

[9] = target: T5, Marmoset CCR2b (Marmo-CCR2b); experiment: flow cytometry on marmoset splenocytes (legend of FIG. 8)
[10] = target: T8, Mouse CCR2 (mouse, UniProt P51683 1-373); experiment: flow cytometry on mouse CCR2 CHO cells, various concentrations
T8 construct: whole, on cells
Description: Mouse CCR2 CHO cells and human CCR2 CHO cells were incubated for 45 min on ice with PBS or various concentrations of hY4T3. After 3 washing steps with cold PBS, cells were stained PE-F(ab)2 goat anti human IgG (1:300; Jackson, Cat.No.109-116-098) for 30 min on ice. After 3 washing steps with cold PBS cells were analyzed by FACS to measure mean fluorescence intensity (MFI).

[11] = target: T7, Human CCR5; experiment: flow cytometry on CHO cells transfected with human CCR5

T7 sequence (P51681 whole entry): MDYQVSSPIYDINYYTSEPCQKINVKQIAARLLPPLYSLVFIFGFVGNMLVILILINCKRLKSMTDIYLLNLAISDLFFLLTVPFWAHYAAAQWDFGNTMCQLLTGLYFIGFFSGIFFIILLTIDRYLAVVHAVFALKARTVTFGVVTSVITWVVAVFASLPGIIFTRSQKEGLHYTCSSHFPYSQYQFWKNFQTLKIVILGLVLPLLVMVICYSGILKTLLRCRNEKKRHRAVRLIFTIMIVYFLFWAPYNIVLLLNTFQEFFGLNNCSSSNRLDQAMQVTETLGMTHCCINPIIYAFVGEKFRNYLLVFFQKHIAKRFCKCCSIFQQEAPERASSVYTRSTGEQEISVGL
T8 sequence (P51683 whole entry): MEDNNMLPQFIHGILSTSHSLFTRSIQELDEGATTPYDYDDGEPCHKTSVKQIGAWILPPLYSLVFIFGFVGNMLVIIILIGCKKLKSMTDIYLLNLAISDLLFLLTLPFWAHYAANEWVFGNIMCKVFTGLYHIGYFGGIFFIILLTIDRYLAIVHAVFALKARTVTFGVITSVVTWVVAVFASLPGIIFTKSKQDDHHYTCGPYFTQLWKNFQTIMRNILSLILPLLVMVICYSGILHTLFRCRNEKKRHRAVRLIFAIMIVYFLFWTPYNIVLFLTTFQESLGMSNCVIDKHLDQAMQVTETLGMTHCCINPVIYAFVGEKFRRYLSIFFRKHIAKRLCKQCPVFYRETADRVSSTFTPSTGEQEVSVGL

B1: Antibody Y4T3 (antibody, V domains shown)
VH: QVHLQQSGTELARPGASIKLSCKTSGSTFTRYTMHWIKQRPGQGLEWIGFIVPSTGYTKYNQKFKDKATLTADKSSSTAYMHLNSLTSEDSALYYCARNKEVDYGASWGQGTLVTVSA
VL: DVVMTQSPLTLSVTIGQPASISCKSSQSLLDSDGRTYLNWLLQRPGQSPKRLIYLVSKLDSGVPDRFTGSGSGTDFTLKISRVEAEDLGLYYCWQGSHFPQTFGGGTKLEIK
notes: also called Y3T3 [sic]; Y4T4 [sic]
[1]
  binding result: no binding (tested: 10 µg/ml)
[2]
  binding result: no binding (tested: 10 µg/ml)
[3]
  binding result: binds
[4]
  binding result: binds
[5]
  binding result: binds
[6]
  fold higher affinity than the tested prior art antibodies (DOC2, 1D9, Clone 48607): > 5 fold
[7]
  binding result: no binding

B2: hY4T3 (humanized Y4T3, variant H3L1) (antibody, V domains shown)
VH: QVQLVQSGAEVKKPGASVKVSCKASGSTFTRYTMHWVRQAPGQRLEWIGFIVPSTGYTKYNQKFKDRVTITRDTSASTAYMELSSLRSEDTAVYYCARNKEVDYGASWGQGTLVTVSS
VL: DVVMTQSPLSLPVTLGQPASISCKSSQSLLDSDGRTYLNWFQQRPGQSPRRLIYLVSKLDSGVPDRFSGSGSGTDFTLKITRVEAEDVGVYYCWQGSHFPQTFGQGTKVEIK
notes: detected with anti-human IgG; Human IgG1 is named as the preferred class
[8]
  binding result: binds
[9]
  binding result: binds
[10]
  binding result: no binding
[11]
  binding result: no binding (tested: 10 µg/ml and 1 µg/ml)

B3: DOC-2 antibody (antibody, V domains shown)
VH: EVQLVESGGGLVKPGGSLKLSCVASGFTLSNYAMSWVRQSPEKRLEWVAEVSSSGIYIYYSDTVTGRFSISRDNAKNTLYLEMSSLRSEDTAIYYCARDRYAYAMDYWGHGTSVIVSS
VL: DIVMTQSPSSLAISVGQRVTLSCKSSQSLLNSYNQKNSLAWYQQKPGQSPKLLVYFASTRESGVPDRFIGSGSGTYFTLTITSVQAGDLADYFCQQHYSNPRTFGGGTRLEIK
notes: Prior art anti-CCR2 antibody; detected with anti-mouse Ig
[6]
  binding result: binds

B4: human IgG1 chimeric variant of Y4T3 (Y4T3-chim) (antibody, V domains shown)
VH: QVHLQQSGTELARPGASIKLSCKTSGSTFTRYTMHWIKQRPGQGLEWIGFIVPSTGYTKYNQKFKDKATLTADKSSSTAYMHLNSLTSEDSALYYCARNKEVDYGASWGQGTLVTVSA
VL: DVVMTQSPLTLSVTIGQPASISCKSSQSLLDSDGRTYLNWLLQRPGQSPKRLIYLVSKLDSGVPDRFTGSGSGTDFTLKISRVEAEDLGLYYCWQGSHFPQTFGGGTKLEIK
notes: also called H0L0
[11]
  binding result: no binding (tested: 10 µg/ml and 1 µg/ml)
